{"source": "patent US20120108503A1", "target": "hepatic leptin receptor (rat) (UniProt Q62959)", "sequence (Q62959 22-1162)": "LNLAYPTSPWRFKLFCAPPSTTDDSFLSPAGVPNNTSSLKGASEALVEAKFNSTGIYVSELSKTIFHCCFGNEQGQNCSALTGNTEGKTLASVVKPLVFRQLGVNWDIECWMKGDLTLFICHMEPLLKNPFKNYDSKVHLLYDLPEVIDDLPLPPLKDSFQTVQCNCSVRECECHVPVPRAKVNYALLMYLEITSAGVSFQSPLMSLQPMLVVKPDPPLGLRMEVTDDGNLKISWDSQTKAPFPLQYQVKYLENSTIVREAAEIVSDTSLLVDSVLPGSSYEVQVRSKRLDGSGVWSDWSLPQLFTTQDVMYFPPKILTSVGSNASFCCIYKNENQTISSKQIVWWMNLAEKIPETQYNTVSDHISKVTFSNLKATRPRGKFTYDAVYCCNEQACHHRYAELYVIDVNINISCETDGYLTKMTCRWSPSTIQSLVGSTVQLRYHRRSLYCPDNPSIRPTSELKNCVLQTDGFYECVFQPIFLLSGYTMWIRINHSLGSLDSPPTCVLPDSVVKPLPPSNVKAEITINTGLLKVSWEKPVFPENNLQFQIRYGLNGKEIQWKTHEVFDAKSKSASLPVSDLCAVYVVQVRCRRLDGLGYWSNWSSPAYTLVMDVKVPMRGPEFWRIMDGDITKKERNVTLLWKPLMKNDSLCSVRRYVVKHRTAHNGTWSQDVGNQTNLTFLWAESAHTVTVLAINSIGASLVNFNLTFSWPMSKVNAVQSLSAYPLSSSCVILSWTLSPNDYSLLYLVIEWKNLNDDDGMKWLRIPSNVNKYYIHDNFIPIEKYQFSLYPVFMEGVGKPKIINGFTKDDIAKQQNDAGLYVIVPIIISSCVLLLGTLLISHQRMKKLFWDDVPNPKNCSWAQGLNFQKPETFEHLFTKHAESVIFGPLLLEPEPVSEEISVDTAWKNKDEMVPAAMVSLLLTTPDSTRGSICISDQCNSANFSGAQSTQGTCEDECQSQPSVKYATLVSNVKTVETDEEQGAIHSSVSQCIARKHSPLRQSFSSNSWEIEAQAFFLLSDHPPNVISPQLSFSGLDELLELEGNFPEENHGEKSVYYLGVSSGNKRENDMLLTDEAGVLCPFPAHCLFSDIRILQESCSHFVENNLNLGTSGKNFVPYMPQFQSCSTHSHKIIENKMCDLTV", "test": "cell-based or functional assay"}
{"substance": "leptin expressed in vivo from adenovirus containing the leptin cDNA (Adv-leptin) (ligand)", "values": [{"measurement": "hepatic phosho-STAT-3", "value": 3, "unit": "fold"}]}
